Several values for one entry are separate records, joined by “and”; a condition that tells them apart may be missing. Equal entries are not always repeated.
Assays:
ErbB4 = biological target: T1, ErbB4 (Rattus norvegicus, UniProt Q62956); assay: In vitro phosphorylation of Akt in neonatal rat cardiomyocytes; format: cell-based; details: for EC50: Akt (Serine 473) phosphorylation, neonatal rat cardiomyocytes, 15 minutes treatment, read-out: Cardiomyocyte (CM) (ErbB4) Avg EC50; for Selectivity SC/CM: ratio of EC50s Schwann cells/cardiomyocytes; for CM % Agonism AVG: top value of the Akt phosphorylation data points in cardiomyocytes, wild-type control 100
T1 construct: forming the ErbB2/ErbB4 complex in cardiomyocytes and the ErbB2/ErbB3 complex in Schwann cells; endogenous in cells; host or cells: primary neonatal rat cardiomyocytes (Sprague Dawley pups, 0 to 4 days old)
Procedure: (§1) In Vitro Phosphorylation of Akt in Neonatal Rat Cardiomyocytes and Rat Schwann Cells by Neuregulin Variants
(§2) Specificity of neuregulin variants towards cardiomyocytes (ErbB4) versus Schwann cells (ErbB3) was tested by measuring Akt activity generated by formation of the ErbB2/ErbB4 and ErbB2/ErbB3 complexes. Upon activation by neuregulin, the ErbB4 and ErbB3 receptors dimerize preferentially with the ErbB2 co-receptor, forming the ErbB2/ErbB4 complex in cardiomyocytes and the ErbB2/ErbB3 complex in Schwann cells, both of which signal through the Akt pathway. Neonatal rat cardiomyocytes were isolated from hearts of Sprague Dawley rat pups at 0 to 4 days old according to manufacturer's protocol using the Neomyt kit and plated on Surecoat plates in NS media containing serum (all from Cellultron Life Technologies, Baltimore, MD). Rat Schwann cells were plated in Poly-D-Lysine coated plates with Dulbecco's modified Eagle's media (DMEM) supplemented with fetal bovine serum (Thermo Fisher) and forskolin (Millipore Sigma).
(§3) After a 24-hour incubation in a humidified incubator maintained at 37° C. and 5% CO2, cardiomyocytes and Schwann cells were washed with serum free media and incubated an additional 16 hours in DMEM supplemented with bovine serum albumin (Sigma). Both cell lines were then treated with titrations of the neuregulin variant molecules for 15 minutes, upon which cells were lysed in lysis buffer (Meso Scale Discovery (MSD)). For detection of Akt phosphorylation, lysates were added to the Multi-Spot 96-Well 4-Spot Phospho (Serine 473)/Total Akt plates (MSD), incubated according to the manufacturer's protocol and read in the SECTOR Imager 6000 (MSD). For both cell assays, the percent phosphorylation of Akt was calculated by multiplying the phospho Akt signal by 2, then dividing by the phospho Akt signal added to the total Akt signal and then multiplying by 100. The phosphorylation of Akt data points were fitted using a log (agonist) versus response, variable slope (4 parameters) analysis in GraphPad Prism to generate EC50 curves. The CM % agonism reflect the top value of the data points.

ErbB3 = biological target: T2, ErbB3 (Rattus norvegicus, UniProt Q62799); assay: In vitro phosphorylation of Akt in rat Schwann cells; format: cell-based; details: Akt (Serine 473) phosphorylation, 15 minutes treatment
T2 construct: forming the ErbB2/ErbB4 complex in cardiomyocytes and the ErbB2/ErbB3 complex in Schwann cells; endogenous in cells; host or cells: rat Schwann cells
Procedure: as §1, §2, §3

T2 sequence (Q62799 20-1339): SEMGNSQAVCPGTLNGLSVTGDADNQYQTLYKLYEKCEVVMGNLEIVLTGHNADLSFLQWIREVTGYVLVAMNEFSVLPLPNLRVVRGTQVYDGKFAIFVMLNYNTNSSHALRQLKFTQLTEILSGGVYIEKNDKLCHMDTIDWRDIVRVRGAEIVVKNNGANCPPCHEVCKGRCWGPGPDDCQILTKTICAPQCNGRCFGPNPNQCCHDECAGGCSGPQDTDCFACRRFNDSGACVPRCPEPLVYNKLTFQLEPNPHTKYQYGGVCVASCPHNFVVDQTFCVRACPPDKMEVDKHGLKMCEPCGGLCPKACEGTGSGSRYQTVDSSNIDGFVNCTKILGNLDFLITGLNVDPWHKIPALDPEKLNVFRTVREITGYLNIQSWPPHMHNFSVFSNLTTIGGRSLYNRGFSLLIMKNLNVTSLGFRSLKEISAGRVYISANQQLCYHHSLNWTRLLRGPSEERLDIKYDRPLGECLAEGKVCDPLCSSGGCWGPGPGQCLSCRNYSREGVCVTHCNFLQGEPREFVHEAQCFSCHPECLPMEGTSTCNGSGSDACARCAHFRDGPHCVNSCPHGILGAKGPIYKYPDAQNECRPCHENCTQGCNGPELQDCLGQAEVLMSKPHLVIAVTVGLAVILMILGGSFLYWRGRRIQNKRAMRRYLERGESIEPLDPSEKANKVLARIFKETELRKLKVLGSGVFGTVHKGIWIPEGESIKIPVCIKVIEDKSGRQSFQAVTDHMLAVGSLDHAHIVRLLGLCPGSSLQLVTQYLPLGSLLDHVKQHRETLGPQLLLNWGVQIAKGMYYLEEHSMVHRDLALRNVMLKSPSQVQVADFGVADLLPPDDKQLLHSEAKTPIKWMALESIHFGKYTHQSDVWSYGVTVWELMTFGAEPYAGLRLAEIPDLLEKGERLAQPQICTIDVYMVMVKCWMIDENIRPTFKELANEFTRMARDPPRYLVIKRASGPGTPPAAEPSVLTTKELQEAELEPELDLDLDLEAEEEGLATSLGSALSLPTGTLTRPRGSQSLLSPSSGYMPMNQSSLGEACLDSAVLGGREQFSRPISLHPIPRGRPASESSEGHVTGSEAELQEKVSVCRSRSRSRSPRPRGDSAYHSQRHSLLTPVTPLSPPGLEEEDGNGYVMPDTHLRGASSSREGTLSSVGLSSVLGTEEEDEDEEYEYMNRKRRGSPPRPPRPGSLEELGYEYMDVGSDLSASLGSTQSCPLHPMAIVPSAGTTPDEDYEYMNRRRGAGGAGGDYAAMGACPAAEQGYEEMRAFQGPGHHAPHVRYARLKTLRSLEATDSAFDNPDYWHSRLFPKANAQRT
T2 sequence (P06494 23-1257 partner): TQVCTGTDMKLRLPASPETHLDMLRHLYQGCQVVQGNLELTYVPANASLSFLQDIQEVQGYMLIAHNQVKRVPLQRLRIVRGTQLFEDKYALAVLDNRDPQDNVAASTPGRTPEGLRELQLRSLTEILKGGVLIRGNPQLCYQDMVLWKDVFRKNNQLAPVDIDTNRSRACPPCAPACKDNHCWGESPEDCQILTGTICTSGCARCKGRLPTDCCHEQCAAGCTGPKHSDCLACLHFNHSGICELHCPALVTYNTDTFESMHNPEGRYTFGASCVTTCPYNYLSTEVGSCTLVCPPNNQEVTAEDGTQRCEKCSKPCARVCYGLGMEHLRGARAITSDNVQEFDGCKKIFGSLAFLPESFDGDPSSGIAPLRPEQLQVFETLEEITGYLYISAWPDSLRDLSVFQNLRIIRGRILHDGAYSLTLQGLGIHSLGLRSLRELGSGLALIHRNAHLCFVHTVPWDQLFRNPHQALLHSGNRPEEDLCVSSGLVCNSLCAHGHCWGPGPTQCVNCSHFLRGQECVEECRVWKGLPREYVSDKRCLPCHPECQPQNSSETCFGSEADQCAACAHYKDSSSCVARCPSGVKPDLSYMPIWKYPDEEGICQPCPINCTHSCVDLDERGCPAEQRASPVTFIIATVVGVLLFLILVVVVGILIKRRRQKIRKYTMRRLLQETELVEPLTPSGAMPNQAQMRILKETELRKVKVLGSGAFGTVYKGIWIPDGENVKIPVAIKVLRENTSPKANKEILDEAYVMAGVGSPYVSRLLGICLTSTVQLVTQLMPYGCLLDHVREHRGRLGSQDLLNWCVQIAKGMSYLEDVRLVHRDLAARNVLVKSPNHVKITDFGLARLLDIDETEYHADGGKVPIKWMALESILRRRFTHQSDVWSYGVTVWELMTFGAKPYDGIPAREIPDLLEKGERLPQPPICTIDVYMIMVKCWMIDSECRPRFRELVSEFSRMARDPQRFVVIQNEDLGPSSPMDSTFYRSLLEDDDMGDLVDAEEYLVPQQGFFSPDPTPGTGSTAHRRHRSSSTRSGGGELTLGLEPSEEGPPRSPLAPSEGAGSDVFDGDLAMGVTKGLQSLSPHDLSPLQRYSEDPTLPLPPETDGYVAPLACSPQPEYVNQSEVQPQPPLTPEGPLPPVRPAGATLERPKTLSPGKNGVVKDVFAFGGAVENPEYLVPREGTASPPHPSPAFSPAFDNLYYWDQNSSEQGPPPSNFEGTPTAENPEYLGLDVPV
T1 sequence (Q62956 26-1308): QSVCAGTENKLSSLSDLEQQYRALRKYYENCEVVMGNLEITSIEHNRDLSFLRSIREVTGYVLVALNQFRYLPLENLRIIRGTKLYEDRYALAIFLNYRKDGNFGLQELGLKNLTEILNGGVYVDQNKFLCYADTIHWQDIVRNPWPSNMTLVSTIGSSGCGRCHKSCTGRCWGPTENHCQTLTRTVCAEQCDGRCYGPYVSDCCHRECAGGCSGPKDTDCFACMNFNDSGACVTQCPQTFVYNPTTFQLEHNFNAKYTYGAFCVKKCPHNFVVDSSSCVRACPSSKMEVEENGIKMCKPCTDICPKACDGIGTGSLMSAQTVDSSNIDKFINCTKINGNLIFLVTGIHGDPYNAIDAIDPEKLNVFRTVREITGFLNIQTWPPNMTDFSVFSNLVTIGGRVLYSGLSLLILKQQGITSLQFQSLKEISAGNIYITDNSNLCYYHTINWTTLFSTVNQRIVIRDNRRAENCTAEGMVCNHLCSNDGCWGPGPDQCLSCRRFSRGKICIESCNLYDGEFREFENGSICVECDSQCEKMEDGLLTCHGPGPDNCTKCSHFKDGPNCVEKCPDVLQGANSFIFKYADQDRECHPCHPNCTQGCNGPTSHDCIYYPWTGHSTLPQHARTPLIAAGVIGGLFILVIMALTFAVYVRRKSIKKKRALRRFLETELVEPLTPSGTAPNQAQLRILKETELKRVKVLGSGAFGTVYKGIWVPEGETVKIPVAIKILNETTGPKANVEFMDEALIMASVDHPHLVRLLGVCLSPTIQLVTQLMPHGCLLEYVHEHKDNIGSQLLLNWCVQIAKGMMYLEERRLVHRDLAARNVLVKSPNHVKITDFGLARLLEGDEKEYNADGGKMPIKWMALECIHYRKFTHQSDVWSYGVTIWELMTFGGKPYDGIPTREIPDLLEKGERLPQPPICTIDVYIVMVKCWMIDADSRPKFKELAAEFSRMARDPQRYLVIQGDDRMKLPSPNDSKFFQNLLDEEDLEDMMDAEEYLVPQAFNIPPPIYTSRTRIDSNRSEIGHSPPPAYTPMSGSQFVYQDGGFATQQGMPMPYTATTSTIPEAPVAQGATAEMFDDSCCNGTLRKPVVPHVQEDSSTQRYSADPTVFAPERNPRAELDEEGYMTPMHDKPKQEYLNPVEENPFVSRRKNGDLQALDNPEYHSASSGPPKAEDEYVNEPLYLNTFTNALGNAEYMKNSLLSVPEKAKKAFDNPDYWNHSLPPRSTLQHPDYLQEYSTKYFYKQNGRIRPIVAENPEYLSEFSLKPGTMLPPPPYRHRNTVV
T1 sequence (P06494 23-1257 partner): as the sequence (P06494 23-1257 partner) above

Molecule	EC50 (ErbB4)	Selectivity SC/CM (ErbB4)	CM % Agonism AVG (ErbB4)	Schwann cells (SC) (ErbB3) Avg EC50 (M) (ErbB3)
:huNRG1(S177-F229)(NRGE1C)::2X(G4A)G4::huFcSEFL2v131(+): Fc fusion of NRG1 variant SEQ ID NO:117 (protein, huNRG1(S177-F229)(NRGE1C) ::2X(G4A)G4::huFcSEFL2v131(+)) SHLVKCGEKHKSFCVNGGECFMIEGPSNPSRYLCKCPNEFTGDRCQEDFMASFGGGGAGGGGAGGGGDKTHTCPPCPAPELLGGPSVFLFPPKPKDTLMISRTPEVTCVVVDVSHEDPEVKFNWYVDGVEVHNAKTKPCEEQYGSTYRCVSVLTVLHQDWLNGKEYKCKVSNKALPAPIEKTISKAKGQPREPQVYTLPPSREKMTKNQVSLTCLVKGFYPSDIAVEWESNGQPENNYKTTPPVLKSDGSFFLYSKLTVDKSRWQQGNVFSCSVMHEALHNHYTQKSLSLSPGKDKTHTCPPCPAPELLGGPSVFLFPPKPKDTLMISRTPEVTCVVVDVSHEDPEVKFNWYVDGVEVHNAKTKPCEEQYGSTYRCVSVLTVLHQDWLNGKEYKCKVSNKALPAPIEKTISKAKGQPREPQVYTLPPSREEMTENQVSLTCLVEGFYPSDIAVEWESNGQPENNYETTPPVLDSDGSFFLYSDLTVDKSRWQQGNVFSCSVMHEALHNHYTQKSLSLSPGK	3.4 nM	>10000	91.6%	inactive
:huFcSEFL2(desK)vl31(+):G4SG4:huNRG1(S177-Q237)(NRGE1C): N-terminal Fc fusion of NRG1 variant SEQ ID NO:124 (protein, huFcSEFL2(desK)v131(+)G4SG4huNRG1(S177-Q237) (NRGE1C)) DKTHTCPPCPAPELLGGPSVFLFPPKPKDTLMISRTPEVTCVVVDVSHEDPEVKFNWYVDGVEVHNAKTKPCEEQYGSTYRCVSVLTVLHQDWLNGKEYKCKVSNKALPAPIEKTISKAKGQPREPQVYTLPPSREKMTKNQVSLTCLVKGFYPSDIAVEWESNGQPENNYKTTPPVLKSDGSFFLYSKLTVDKSRWQQGNVFSCSVMHEALHNHYTQKSLSLSPGGGGGSGGGGSHLVKCGEKHKSFCVNGGECFMIEGPSNPSRYLCKCPNEFTGDRCQEDFMASFYKAEELYQDKTHTCPPCPAPELLGGPSVFLFPPKPKDTLMISRTPEVTCVVVDVSHEDPEVKFNWYVDGVEVHNAKTKPCEEQYGSTYRCVSVLTVLHQDWLNGKEYKCKVSNKALPAPIEKTISKAKGQPREPQVYTLPPSREEMTENQVSLTCLVEGFYPSDIAVEWESNGQPENNYETTPPVLDSDGSFFLYSDLTVDKSRWQQGNVFSCSVMHEALHNHYTQKSLSLSPGK	0.3 nM	>10000	85.4%	inactive
:huFcSEFL2(desK)vl31(+):G4SG4:huNRG1(S177-Q237)(NRGE1D): N-terminal Fc fusion of NRG1 variant SEQ ID NO:131 (protein, huFcSEFL2(desK)v131(+)G4SG4huNRG1(S177-Q237) (NRGE1D)) DKTHTCPPCPAPELLGGPSVFLFPPKPKDTLMISRTPEVTCVVVDVSHEDPEVKFNWYVDGVEVHNAKTKPCEEQYGSTYRCVSVLTVLHQDWLNGKEYKCKVSNKALPAPIEKTISKAKGQPREPQVYTLPPSREKMTKNQVSLTCLVKGFYPSDIAVEWESNGQPENNYKTTPPVLKSDGSFFLYSKLTVDKSRWQQGNVFSCSVMHEALHNHYTQKSLSLSPGGGGGSGGGGSHLVKCGESHKSFCVNGGECYMVEGSSIPSRYLCKCPNEFTGDRCQEDFMASFYKAEELYQDKTHTCPPCPAPELLGGPSVFLFPPKPKDTLMISRTPEVTCVVVDVSHEDPEVKFNWYVDGVEVHNAKTKPCEEQYGSTYRCVSVLTVLHQDWLNGKEYKCKVSNKALPAPIEKTISKAKGQPREPQVYTLPPSREEMTENQVSLTCLVEGFYPSDIAVEWESNGQPENNYETTPPVLDSDGSFFLYSDLTVDKSRWQQGNVFSCSVMHEALHNHYTQKSLSLSPGK	0.23 nM	>10000	88.7%	inactive

More lines, now with the values ahead:

EC50 (ErbB4)	Selectivity SC/CM (ErbB4)	CM % Agonism AVG (ErbB4)	Schwann cells (SC) (ErbB3) Avg EC50 (M) (ErbB3)	Molecule
0.15 nM and 0.154 nM and 0.28 nM and 0.253 nM	–	–	–	Wild-type as control: wild-type neuregulin sequence used as control in the Akt assays; construct not specified (wild-type fragment: SEQ ID NO: 112) (protein, chains of the parent or of the whole protein) SHLVKCAEKEKTFCVNGGECFMVKDLSNPSRYLCKCPNEFTGDRCQNYVMASFYKAEELYQ
1.9 nM	>10000	91.9%	inactive	:huNRG1(S177-F229)(NRGE1D)::2X(G4E)G4::huFcSEFL2v131(+): Fc fusion of NRG1 variant SEQ ID NO:126 (protein, huNRG1(S177-F229)(NRGE1D) ::2X(G4E)G4::huFcSEFL2v131(+)) SHLVKCGESHKSFCVNGGECYMVEGSSIPSRYLCKCPNEFTGDRCQEDFMASFGGGGEGGGGEGGGGDKTHTCPPCPAPELLGGPSVFLFPPKPKDTLMISRTPEVTCVVVDVSHEDPEVKFNWYVDGVEVHNAKTKPCEEQYGSTYRCVSVLTVLHQDWLNGKEYKCKVSNKALPAPIEKTISKAKGQPREPQVYTLPPSREKMTKNQVSLTCLVKGFYPSDIAVEWESNGQPENNYKTTPPVLKSDGSFFLYSKLTVDKSRWQQGNVFSCSVMHEALHNHYTQKSLSLSPGKDKTHTCPPCPAPELLGGPSVFLFPPKPKDTLMISRTPEVTCVVVDVSHEDPEVKFNWYVDGVEVHNAKTKPCEEQYGSTYRCVSVLTVLHQDWLNGKEYKCKVSNKALPAPIEKTISKAKGQPREPQVYTLPPSREEMTENQVSLTCLVEGFYPSDIAVEWESNGQPENNYETTPPVLDSDGSFFLYSDLTVDKSRWQQGNVFSCSVMHEALHNHYTQKSLSLSPGK
2.9 nM	>10000	94%	inactive	:huNRG1(S177-F229)(NRGE1C)::2X(G4E)G4::huFcSEFL2v131(+): Fc fusion of NRG1 variant SEQ ID NO:117 (protein, huNRG1(S177-F229)(NRGE1C) ::2X(G4E)G4::huFcSEFL2v131(+)) SHLVKCGEKHKSFCVNGGECFMIEGPSNPSRYLCKCPNEFTGDRCQEDFMASFGGGGEGGGGEGGGGDKTHTCPPCPAPELLGGPSVFLFPPKPKDTLMISRTPEVTCVVVDVSHEDPEVKFNWYVDGVEVHNAKTKPCEEQYGSTYRCVSVLTVLHQDWLNGKEYKCKVSNKALPAPIEKTISKAKGQPREPQVYTLPPSREKMTKNQVSLTCLVKGFYPSDIAVEWESNGQPENNYKTTPPVLKSDGSFFLYSKLTVDKSRWQQGNVFSCSVMHEALHNHYTQKSLSLSPGKDKTHTCPPCPAPELLGGPSVFLFPPKPKDTLMISRTPEVTCVVVDVSHEDPEVKFNWYVDGVEVHNAKTKPCEEQYGSTYRCVSVLTVLHQDWLNGKEYKCKVSNKALPAPIEKTISKAKGQPREPQVYTLPPSREEMTENQVSLTCLVEGFYPSDIAVEWESNGQPENNYETTPPVLDSDGSFFLYSDLTVDKSRWQQGNVFSCSVMHEALHNHYTQKSLSLSPGK
2 nM	>10000	87.1%	inactive	:huNRG1(S177-F229)(NRGE1D)::2X(G4A)G4::huFcSEFL2v131(+): Fc fusion of NRG1 variant SEQ ID NO:126 (protein, huNRG1(S177-F229)(NRGE1D) ::2X(G4A)G4::huFcSEFL2v131(+)) SHLVKCGESHKSFCVNGGECYMVEGSSIPSRYLCKCPNEFTGDRCQEDFMASFGGGGAGGGGAGGGGDKTHTCPPCPAPELLGGPSVFLFPPKPKDTLMISRTPEVTCVVVDVSHEDPEVKFNWYVDGVEVHNAKTKPCEEQYGSTYRCVSVLTVLHQDWLNGKEYKCKVSNKALPAPIEKTISKAKGQPREPQVYTLPPSREKMTKNQVSLTCLVKGFYPSDIAVEWESNGQPENNYKTTPPVLKSDGSFFLYSKLTVDKSRWQQGNVFSCSVMHEALHNHYTQKSLSLSPGKDKTHTCPPCPAPELLGGPSVFLFPPKPKDTLMISRTPEVTCVVVDVSHEDPEVKFNWYVDGVEVHNAKTKPCEEQYGSTYRCVSVLTVLHQDWLNGKEYKCKVSNKALPAPIEKTISKAKGQPREPQVYTLPPSREEMTENQVSLTCLVEGFYPSDIAVEWESNGQPENNYETTPPVLDSDGSFFLYSDLTVDKSRWQQGNVFSCSVMHEALHNHYTQKSLSLSPGK

Source: patent US12692294B2, “Engineered NRG-1 variants with improved selectivity toward ErbB4 but not against ErbB3” (Amgen Inc., priority 2021, dated 2026)
